Data taken from patent publication US20180111972A1 (Stanford University, published 2018).
Where two headings read alike, the source gives them in different places.

B1: PVAM (4-22 RF), yeast-displayed (designed binder)
chain: IAEPAMIAECHPIETLVDILQEYPDEIGYIFKPSCVPLMRCGGCCNNRNVQCRPTEESNITMQIMRIKPHRGQHIGEMSFLQHNKCRCETVAAGSTSGSGKSSEGKGEVVKFMDVYQRSYCKTRTEVFEISRRLIDRTNANFLVWPPCVEVQRCSGCCNHEGLECVPTQVQLRPVQVRKIEFVRKKPIFKKATVTLEDHLACECRPKKD
notes: Combines K87R and I182F with F20L, E28G, Q71R and D160H
B2: scPDGF, yeast-displayed (ligand)
chain: IAEPAMIAECKTRTEVFEISRRLIDRTNANFLVWPPCVEVQRCSGCCNNRNVQCRPTQVQLRPVQVRKIEIVRKKPIFKKATVTLEDHLACKCETVAAGSTSGSGKSSEGKGIAEPAMIAECKTRTEVFEISRRLIDRTNANFLVWPPCVEVQRCSGCCNNRNVQCRPTQVQLRPVQVRKIEIVRKKPIFKKATVTLEDHLACKCETVAA

Experiments:
[1] = target: T1, soluble VEGFR2 (Fc or His format not stated for the experiment) (human, UniProt P35968 20-764); experiment: binding titration (FIG. 12); taken as yeast display, receptor format not stated; to VEGFR; receptor format not stated
T1 construct: extracellular domain
T1 sequence (P35968 20-764): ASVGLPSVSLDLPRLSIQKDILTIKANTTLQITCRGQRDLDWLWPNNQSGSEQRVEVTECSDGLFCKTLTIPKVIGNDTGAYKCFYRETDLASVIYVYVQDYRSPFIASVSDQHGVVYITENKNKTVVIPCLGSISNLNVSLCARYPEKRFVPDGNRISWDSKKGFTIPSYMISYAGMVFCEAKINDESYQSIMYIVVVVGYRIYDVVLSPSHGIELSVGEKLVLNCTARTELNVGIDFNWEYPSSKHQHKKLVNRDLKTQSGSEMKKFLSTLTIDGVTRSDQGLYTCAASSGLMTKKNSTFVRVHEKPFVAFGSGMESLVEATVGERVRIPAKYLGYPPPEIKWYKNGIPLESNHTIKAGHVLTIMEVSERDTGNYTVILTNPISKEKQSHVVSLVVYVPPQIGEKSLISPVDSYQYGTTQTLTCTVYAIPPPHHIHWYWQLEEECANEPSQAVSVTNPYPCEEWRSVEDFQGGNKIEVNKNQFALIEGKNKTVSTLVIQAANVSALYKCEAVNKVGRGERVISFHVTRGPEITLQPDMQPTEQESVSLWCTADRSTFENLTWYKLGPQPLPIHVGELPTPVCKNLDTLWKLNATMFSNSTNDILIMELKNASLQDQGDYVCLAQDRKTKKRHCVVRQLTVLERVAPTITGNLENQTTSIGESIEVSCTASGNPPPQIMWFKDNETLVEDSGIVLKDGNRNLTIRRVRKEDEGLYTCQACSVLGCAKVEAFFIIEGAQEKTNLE

[2] = target: T2, PDGFRβ-His (residues 1-314 of PDGFR-β with C-terminal hexahistidine tag) (human, UniProt P09619 33-314); experiment: yeast surface display, flow cytometry equilibrium titration of PDGFRβ-His (panel 'PDGFR-His'), normalized fluorescence
T2 construct: range 1-314; Monovalent form, expressed in FreeStyle 293-F cells; also called PDGRβ-His; PDGFR-His
T2 sequence (P09619 other isoform, or with tags, fused parts or gaps limits assumed, form in doubt): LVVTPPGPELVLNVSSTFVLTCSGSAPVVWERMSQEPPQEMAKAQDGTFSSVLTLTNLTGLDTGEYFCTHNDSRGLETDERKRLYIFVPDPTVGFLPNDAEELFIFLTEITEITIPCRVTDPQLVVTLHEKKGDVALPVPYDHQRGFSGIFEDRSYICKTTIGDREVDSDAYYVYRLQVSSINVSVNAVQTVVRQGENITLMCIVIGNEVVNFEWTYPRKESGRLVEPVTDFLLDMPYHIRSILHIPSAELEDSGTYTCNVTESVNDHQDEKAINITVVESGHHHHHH
Description: (§1) Cells were incubated in large enough volumes to avoid ligand depletion and appropriate time to reach equilibrium. During the last hour of incubation, yeast were incubated with 1:250 dilution of chicken anti-c-Myc (Invitrogen) in PBSA. […] Yeast were washed, pelleted, and resuspended in PBSA immediately before analysis by flow cytometry using BD FACSCalibur or BD Accuri C6. Flow cytometry data were analyzed using FlowJo (v7.6.1 and v10, Treestar) or BD Accuri C6 software. Statistical analysis was performed using GraphPad Prism 6.

[3] = target: T3, soluble PDGFRβ (Fc or His format not stated for the experiment) (human, UniProt P09619 33-532); experiment: binding titration (FIG. 12); taken as yeast display, receptor format not stated; to PDGFR; receptor format not stated
T3 construct: extracellular domain
T3 sequence (P09619 33-532): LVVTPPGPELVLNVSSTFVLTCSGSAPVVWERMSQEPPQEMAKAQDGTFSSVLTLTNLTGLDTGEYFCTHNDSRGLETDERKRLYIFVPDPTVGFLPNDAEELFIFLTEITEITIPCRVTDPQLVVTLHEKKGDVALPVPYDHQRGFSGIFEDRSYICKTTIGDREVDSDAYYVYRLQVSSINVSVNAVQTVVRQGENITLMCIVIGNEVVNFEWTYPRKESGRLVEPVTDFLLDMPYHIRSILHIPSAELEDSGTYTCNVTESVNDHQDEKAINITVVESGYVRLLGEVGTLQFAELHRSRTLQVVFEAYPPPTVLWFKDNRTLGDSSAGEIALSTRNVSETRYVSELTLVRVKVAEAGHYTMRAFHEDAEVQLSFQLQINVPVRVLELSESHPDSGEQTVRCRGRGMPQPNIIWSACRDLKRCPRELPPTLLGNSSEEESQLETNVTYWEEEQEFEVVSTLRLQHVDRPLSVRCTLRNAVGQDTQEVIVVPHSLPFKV

[4] = target: T2, PDGFRβ-His (residues 1-314 of PDGFR-β …); experiment: yeast surface display titration, flow cytometry
Description: as §1

[5] = target: T4, VEGFR2-His (residues 1-764 of VEGFR2, Ig-like domains 1-7, with hexahistidine tag) (human, UniProt P35968 20-764); experiment: yeast surface display titration, flow cytometry
T4 construct: range 1-764; Monomeric form, expressed in FreeStyle 293-F cells; also called VEGFR-His
T4 sequence (P35968 other isoform, or with tags, fused parts or gaps limits assumed, form in doubt): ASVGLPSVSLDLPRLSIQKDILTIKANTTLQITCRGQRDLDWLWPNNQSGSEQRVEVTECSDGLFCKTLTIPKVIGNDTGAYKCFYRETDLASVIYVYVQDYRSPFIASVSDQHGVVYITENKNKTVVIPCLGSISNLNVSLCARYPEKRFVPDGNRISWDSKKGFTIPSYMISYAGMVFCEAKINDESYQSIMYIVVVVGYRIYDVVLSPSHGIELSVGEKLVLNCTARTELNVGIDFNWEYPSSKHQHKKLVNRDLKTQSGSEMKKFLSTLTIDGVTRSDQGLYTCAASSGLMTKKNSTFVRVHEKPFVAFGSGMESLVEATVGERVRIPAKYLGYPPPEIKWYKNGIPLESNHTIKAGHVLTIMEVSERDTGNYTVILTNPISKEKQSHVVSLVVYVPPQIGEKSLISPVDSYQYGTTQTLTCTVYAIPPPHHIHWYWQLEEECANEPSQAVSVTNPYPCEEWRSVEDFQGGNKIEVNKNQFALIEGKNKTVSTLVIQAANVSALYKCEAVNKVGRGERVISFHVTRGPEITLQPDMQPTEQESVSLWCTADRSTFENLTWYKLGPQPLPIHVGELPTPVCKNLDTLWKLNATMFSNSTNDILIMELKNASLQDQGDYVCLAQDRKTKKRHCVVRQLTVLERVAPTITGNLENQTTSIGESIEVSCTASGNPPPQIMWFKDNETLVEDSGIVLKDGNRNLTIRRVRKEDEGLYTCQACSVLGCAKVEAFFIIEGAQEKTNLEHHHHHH
Description: as §1

[6] = target: T2, PDGFRβ-His (residues 1-314 of PDGFR-β …); experiment: yeast surface display titration, flow cytometry; remark: listed apart in the source
Description: as §1

[7] = target: T4, VEGFR2-His (residues 1-764 of VEGFR2, …); experiment: yeast surface display titration, flow cytometry; remark: listed apart in the source
Description: as §1

[8] = target: T3, soluble PDGFRβ (Fc or His format not …); experiment: yeast surface display, flow cytometry titration of soluble receptor; panel 'PDGFR binding', Fc or His form not given
[9] = target: T4, VEGFR2-His (residues 1-764 of VEGFR2, …); experiment: yeast surface display, flow cytometry equilibrium titration of VEGFR2-His, normalized fluorescence
Description: as §1

[10] = target: T2, PDGFRβ-His (residues 1-314 of PDGFR-β …); experiment: yeast surface display, flow cytometry titration of PDGFRβ-His (panel 'PDGFRβ binding')
Description: as §1

[11] = target: T2, PDGFRβ-His (residues 1-314 of PDGFR-β …); experiment: yeast surface display titration, flow cytometry; remark: listed apart in the source
[12] = target: T4, VEGFR2-His (residues 1-764 of VEGFR2, …); experiment: yeast surface display titration, flow cytometry; remark: listed apart in the source
[13] = target: T2, PDGFRβ-His (residues 1-314 of PDGFR-β …); experiment: titration on yeast-displayed scPDGF, flow cytometry, anti-His
Description: as §1
(§2) Bound protein was detected using fluorescently-labeled anti-His and anti-mouse-Fc antibodies.

[14] = target: T5, PDGFRβ-Fc (residues 1-314 of PDGFR-β fused to the Fc region of mouse IgG2a) (human; mouse, UniProt P09619 33-314); experiment: yeast surface display titration; PDGF taken as yeast-displayed scPDGF
T5 construct: range 1-314; Expressed in FreeStyle 293-F cells; also called PDGRβ-Fc; PDGFR-Fc; not shown: Fc region of mouse IgG2a
T5 sequence (P09619 33-314 limits assumed, form in doubt): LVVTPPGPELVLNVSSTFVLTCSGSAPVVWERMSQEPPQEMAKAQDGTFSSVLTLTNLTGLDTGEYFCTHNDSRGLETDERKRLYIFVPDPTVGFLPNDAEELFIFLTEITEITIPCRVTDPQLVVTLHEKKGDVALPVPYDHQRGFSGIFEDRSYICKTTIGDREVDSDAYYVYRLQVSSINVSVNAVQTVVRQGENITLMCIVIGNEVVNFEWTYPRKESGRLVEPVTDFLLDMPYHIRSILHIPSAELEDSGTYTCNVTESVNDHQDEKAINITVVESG

[15] = target: T5, PDGFRβ-Fc (residues 1-314 of PDGFR-β …); experiment: titration on yeast-displayed scPDGF, flow cytometry, anti-mouse-Fc
Description: as §1, §2

Binder	Kd [1] [nM]	EC50 (read off the curve) [2] [nM]	Kd [3] [nM]	Kd [4] [nM]	Kd [5] [nM]	Kd [6] [nM]	Kd [7] [nM]	EC50 (read off the curve) [8] [nM]	EC50 (read off the curve) [9] [nM]	EC50 (read off the curve) [10] [nM]	fold improvement compared to PV6 [11] [fold]	fold improvement compared to PV6 [12] [fold]	Kd [13] [nM]	Kd [14] [nM]	Kd [15] [nM]
B1	2.1	~0.4	0.21	0.39	1.1	0.39	1.1	~0.2	~1	~0.3	1100	200	–	–	–
B2	–	–	–	–	–	–	–	–	–	–	–	–	310	~0.04	0.028
